Test results taken from the domain aggregation screens of Martell et al. (2025).

Assay: soluble fraction after stress (log2 fold change); higher = more stays soluble; pooled small domains, quantitative proteomics
Details: stress: 50 degC
Outline: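 Each library was heated to 50°C as a stress step. The libraries, made up of small protein domains, were pooled and analysed at high throughput by quantitative proteomics. The reported value is the base-two logarithm of the fold change in each protein's soluble amount after stress, taken as a measure of aggregation propensity. The higher the value, the more protein stays in solution.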

| Sequence | soluble fraction (log2) |
| --- | --- |
| HMHDPLATLTPREHEVMSLMAEGRTNAAIAQALVIGTGAVEKNVTSIFQKLGLDDSGTDHRRVLAVLAWLQ | -2.14 |
| HMKRMSKKQLSAVIEKYFSSQPGVTLTLKDIFRNLHLDTHPLKMIALDILEEMSWDDVIMKVSDTSYALNT | 0.281 |
| HMSFDENEALRKALDVFWEKGYDGTSLSDLTEAMGINKPSLYATFGNKDQLFLKAIEMYENR | -0.992 |
| HMSKTEEIAYTTFVKYLENKDIEEVYLGNNAKIKVILKDGREMITDNPRTADFKKDLLLHDIKVVEKT | 0.219 |
| HMAEKRTAIITTARADIRQKPEATAPLAFEAVKDVVLELTDKPADGWVRVKHRDGSTGYIRINQI | 0.0711 |
| HMEKSLKELAQGVGQKVLTSGRPYHFDPMSAMERRVVHMTLMEMDGLRTESEGEGRFRHVVVFPA | -0.184 |
| HMEEKEIGQTLSVKIRENVLSKLDMTRDLEDEEVKHIIEHEIWLAAKKHYISLEERNSIKRGIFNSL | -0.573 |
| HMPPNHADLKSSGLKATLPRLKILEIFQNSQVRHLSAEDVYKLLLAENLDVGLATVYRVLTQFEQAGL | -0.475 |
| HMRGIPEEVADVAIQWVARLDSNEISDADRAAFFAWLDASPINRWAYNDISESWAKLSILNEMGH | -1.6 |
| HMSIYYQIYESLKKDLSNNLYKPGEKLPSENVLSKRFGVNRHTIRRSLQLLKNEGILFSKRGSGIIVHD | -2.32 |
| HMNIILFLDELHRLLSDLPPEERNQAIKYYEDYFEDAGPENEQAILKELGSPQELANQIKATT | -0.627 |
| HMRSTIYEFTVPPGQLESIRLDVYITSFVENATRSKVQEAIKQGYVWVNGKHEKASYTMLPGDKIYIELPI | -1.79 |
| HMPHFGVVLQMDDWKTLRDRLEARDDIDWVMKPNLRFEGQPGEQATLFIRDPSGNALEFKGFADLSQVF | -0.348 |
| HMEKPAQDVLASHREWMGEMIKAEHMTAKQVWRLLRERADIGVSYPTVKRYLRAHFQFGGPS | -1.28 |
| HMPGRKTTFEERLSIIEDLIKHDVNYSWAVDKYHVSYQQVYGWYQKYRKSGNDPQSLRDRRGK | -2.7 |
| HMLLREKLESVLPFISVSALAKTYFKRSPQWFYQRLNGSIVNGKPIRFNDAELKTLAGALTDIGKKISQAA | -0.322 |
| HMAAVAPPVLERIASDLATRFAGTLSPETVDRYVRESYHLLAERAGITRYLPSLTARFAGDRLDA | 0.0481 |
| HMRSKTSYAVWTPIQIDAGSQMQALQSKGFNTVLMEGGISVGIRSDKAQAQALLNRLQGAGFTGQLREVN | -0.183 |
| HMGGKWKPIILYYININSVARYSELKRFIPSINERMLTRQLRELEEDNLIERKVYPIVPPKVEYRLTEYGK | 0.0177 |
| HMEDPFLWVEKLGSSDWIEREESAEKLLEAGEASVEALRTALTHPDLEVRERVRELLSVISPL | -0.104 |
| HMKTMSLSSIEKAIYKTKYENEPTSQRLSRIESSVFGTNFSQDSESERIARISSAINAQKSAK | 0.125 |
| HMYSDDNKSILNLIDNLFNKENIKIDINAKKLLSNYLGVDRLVTKGEIEKAILFAGTKKHLSIEDISAFLS | -0.0337 |
| HMYSNDEIVNYLKNYIFDNFNLNELSDEELEEKIAELVQQQFAGQLLSLDEKVKLVNQVYSSIR | 0.0129 |

| Sequence | soluble fraction (log2) |
| --- | --- |
| HMAQLPADMSRVKSADVSDAQLREFVQKAQASGQTETQLFREFSRRGMPTNEINILRSRMVGLQNN | 0.0388 |
| HMVENMDEFIGRVRRLVSDRLDLLKEASDDEIRETISQVVLELSREQFLTLNEKKTVLEGVFNSMR | -0.399 |
| HMTDVRFIDIPVTEHHPWNGMKVRDLQLPPGTLLVFLSHPGEKNTVPHGETVLRSGDVLVLGATAYTGQ | -0.0558 |
| HMNEKAALIFNEWSDFVSKDDEANAQIKFDELITLYKKTGYTKIALLEVATKQASNGDIEGALAKYSLLID | 0.208 |
| HMTLDDSFYQKADEIIANHTKEERSLIPIIQDIQAEYRYLPPELLTYVAKEIGITDARAYSVASFYENFS | -0.446 |
| HMITETIGANIKTLRDKFRMSQQDLASKMNTARPVISNWENGKTEPSSSQLLKLAKIFDTSTDKILGNV | 0.163 |
| HMSNNENSILEKLNSFSGKKIKVSHTIGSLAARLDEYPKIKMWLYKRIRENSINEQAYKYLIFIIERKVR | -1.2 |
| HMTDTDVLSSRLSALSSGRTSAVRLRDGVLSLVLDVGGLSIEARKAMTTAIESTARATPGVEAVRIAET | -0.0141 |
| HMSDDVELLGRLSDREVSVLQYLSQGYSNKQISEQMFISNKTVSTYKARLLLKLNAGSLVDLIEFAKRNTL | -1.4 |
| HMLLSEPSVLKFNDDNSYEIVSGFLTEYKDKIVKIERRYKKATVKITVAGEEKEIKVSFVEDTE | -0.161 |
| HMGLAWTVEGRTVLLGRTADRIELYNVGGGLVALARESDRISAPGVGLYVVRVVSDGQSVSQKIWIT | -0.394 |
| HMDVSASEVGLTGRQTDVLSLMVKGRSNRDIAELLGLSEGTVKIHITAIFKALGVASRTQALVAAARLGLK | -0.156 |
| HMKPSNRSYPTALRMEVIGIIRERYADFGPTLAGEKLAELHGIHLGRETIRQWMMAAGLWKDRR | -0.825 |
| HMKDLTIRQQQFLNYIKDHLSLTGFPPTRSDIANEMGFKSPNAAEDHLRALARKGAIEIVPGTSRGIRLP | -0.24 |
| HMHSGFHSAILDVDRAVKEGKTLYEALNKYPYIFDETFRSLVRAGEASGELPSILSKLALYLEEQSK | -1.16 |
| HMYTDGVPALTDLKKESKPGRRQYVGVEDIPKVLGGLGITILSTSKGLMSGHQAKKKNIGGELIASV | 0.258 |
| HMQAMDYEGFKKEILKMSDIDLSLYKEKQMKRRIDSLIRKNGYEHYEDYVQALKQDSGLYNEFINYLTI | 0.439 |
| HMKAPPLTDREKEILRWVAAGLQNKEIAHKLGISLATVRNHIHNILEKLDVHSKLEAVSLAFRQGWVS | -0.0741 |
| HMKRLQEQAYDYLKELILSGKMIENEIYSETKLASEIGISRTPIRDALQRLSQDGFIDIIPSKGFRIH | -0.134 |
| HMRVTEVSYDKFLDMLSGGQVTVVELQENERELYFKAADENGAERIYSTGVFPDADLQKRLSESGVTF | -0.025 |
| HMQTKMVYSDLVNSIKSEQVSSMLVSGNTVTVTLTNGDKAKVKIPSLDTLQADVGKEMNDQMDKGTLKQE | 0.181 |
| HMGQPGNWTSYVFKNSDTEPAKPTSSGPIPSGWNDAPTGVGIWWMSKATIDASTGKAGSWSTPIRVTGED | 0.0592 |
| HMDLSLQTFNELKTELTNNKITIDQFSEKINEFDITSDIFEISRELFLDDTLSLEDYLVVIENVLIN | -0.45 |

| Sequence | soluble fraction (log2) |
| --- | --- |
| HMVVLPGEVLRINVIQEGKEHGQGVGYMDDGTMVVIENGREFIGEYMEVNVTKVLQTAAGRMIFGRVD | -0.526 |
| HMTELPLTPRSKRILEMSALEARRLNHSYIGTEHLLMAIIRDGDGVAAKILESLGVNLPNFYTDTVRSIE | -0.121 |
| HMSVYIGVDQAKSIAAEHAGLSNSAVTFSKAKLENDDGMTVYEVEFFYQGTEYDYKIDASTGSILEYDLDR | -1.26 |
| HMDLPDTLSMPNALKVLEDNGFPTSKAKLYKMTSQEQIPFMKYGNKLVFSRKALIEWAHKQLV | -1.1 |
| HMNFTMERLYTKELTSEDIDEIKKELNSMGYTEGVEFNIIKGDKTSFIMAERQLKAKMLSHLSDLGLPRGA | -0.152 |
| HMVDDRPVTGTTLIREWQGRAYEVIVQAGHFEFQGQRYQSLSAIAKVITGTVWNGWAFFGLR | -0.524 |
| HMQVSDTNTLEQFAKEVIEANPKAVEDYHQNPLAIGFLVGQLMKVSKGSANPQTGKEILEKLL | 0.178 |
| HMFIVTDQMQRVLDYITEKEKATNNDLEELLGVKSTRIYTITRKLIQHNLIIPVGKGKNKYYIL | -0.79 |
| HMDMRLADLIGRDGITITFMRPSGKVEIDGEIYDAVSDVGLIDKNEEVEVIKFENAQLVVTKKNKN | -0.0621 |
| HMPKTATIVIDLNYADAKEIVENLQTILAGETKDISVAPHPSANQIIASGDRWEVENISTIIKQLDR | 0.00694 |
| HMPDPVHAAYLRLAVLLTEQAIGPQVTEQQIRDRFALTRRQTSDLMGRLIREGIAEKRAGYGWNINTELTA | -0.845 |
| HMKRSVIVTAERAEVRQKADEGSALVFEAEKNVSLEYLEAAPGGWVKVRHLDGQSGFVRGNQI | -0.37 |
| HMVDITPDLIRTLLERFGEYGVTKEHIEARIQRHIESILPAQVVQLRKTYNSLKDGMSQPSDWFDI | -1.26 |
| HMNSKQELAYQTIRARIVDGSYGPGYRIVIDEVARELGVSPIPVREAVRRLEAEGLITYTRHAGARVVA | -0.184 |
| HMAAGELSGEALIALIERHPMALSALATTFGHSESDLRAFVEPLARQGRLRLFESQGTLFVGGIG | -0.022 |
| HMSTKLLEVNIFDDSKWVNKTIMDSDIPEDILIVMIKRGDEVIVPKGSTIINKGDILVLSANNFDNLLN | -1.63 |
| HMNLGLTGDPSVLYSILLQRGDSSRADLQRQTGWSLSKTTLVLNQLLAQKLIVQVGAGRSTQYRVIN | -0.983 |
| HMEVVELTDDEKMILATLHDGPVEIGHIKQVVGLSGKKWDAATKSLRQKGLINVVLENEQKLMVK | 0.422 |
| HMRTMFGQRLRLARKRAGLSMQALADRVTPSVSAQAISKYEADQMMPSSSVLVGLGKALGVSLDFLVGGQ | -0.536 |
| HMTVTTDITQYFLQENGLLNGPNARQLRQKIGETLNIGYTNGKQLLKRAQQFGLTRDQILTALKK | -0.481 |
| HMGLPAWVPQNYIDRVTAIYDYSADKDDELTFNEGSTIFVLKKNDDGWWEGVMDGVTGLFPGNYVEAT | -0.8 |
| HMDTERLYAYAWQTHLKQFGLNISEEEIRQFVGVDDRIVHSFYAKTVPLDDFENTMFSLGEIIQQSL | -2.99 |
| HMPVNEEFKRLIDKIKYEFSINQAQISERLGVKSTYLSDMINGRVPYNESMQKKIHEVFHIG | -0.0665 |
